The record followed here is patent publication US20240132578A1.

What all share (assay): cell-based or functional assay
Assay [1] deals with HIV-1 JR-CSF Env T341A (HIV-1 isolate JR-CSF) (UniProt P20871).
Assay [2] deals with HIV-1 envelope glycoprotein (Env) of isolate MGRM-Chronic-B-010, on pseudovirus (HIV-1).
The next assay concerns the target HIV-1 JRFL Env (HIV-1).
Assay [3] concerns the target HIV-1 JR-CSF Env I309A (HIV-1 (isolate JR-CSF, clade B)) (UniProt P20871).
Assay [4] concerns the target HIV-1 envelope glycoprotein (Env) of isolate 92WR026, subtype A (HIV-1).
The target of assay [5] is HIV-1 envelope glycoprotein (Env) of isolate MG RM-A-002, subtype A (HIV-1).
The target in assay [6] is HIV-1 MGRM-AG-005 Env (HIV-1).
In assay [7] the target is HIV-1 envelope glycoprotein (Env) of isolate 92BR020, on pseudovirus (HIV-1).
In assay [8] the target is HIV-1 JR-CSF Env D325A (HIV-1 isolate JR-CSF) (UniProt P20871).
Assay [9] addresses HIV-1 JR-CSF Env F317A (HIV-1 (isolate JR-CSF, clade B)) (UniProt P20871).
Assay [10] has as its target HIV-1 JR-CSF Env H330A (HIV-1 isolate JR-CSF) (UniProt P20871).
The target in assay [11] is HIV-1 JR-CSF Env N295A (HIV-1 (isolate JR-CSF, clade B)) (UniProt P20871).
Assay [12] concerns the target HIV-1 JR-CSF Env N355A (HIV-1 isolate JR-CSF) (UniProt P20871).
Assay [13] has as its target HIV-1 JR-CSF Env T202A (HIV-1 (isolate JR-CSF)) (UniProt P20871).
Assay [14] has as its target HIV-1 JR-CSF Env T320A (HIV-1 (isolate JR-CSF, clade B)) (UniProt P20871).
For assay [15], the target named is HIV-1 JR-CSF Env P299A (HIV-1 (isolate JR-CSF, clade B)) (UniProt P20871).
Assay [16] has as its target HIV-1 MGRM-AG-005 envelope glycoprotein (Env) on pseudovirus (HIV-1).
Assay [17] has as its target HIV-1 MGRM-D-018 envelope glycoprotein (Env) on pseudovirus (HIV-1).
Assay [18] deals with HIV-1 MGRM-C-026 envelope glycoprotein (Env) on pseudovirus (HIV-1).
The target of assay [19] is HIV-1 93IN905 envelope glycoprotein (Env) on pseudovirus (HIV-1).
Assay [20] has as its target HIV-1 MGRM-C-027 envelope glycoprotein (Env) on pseudovirus (HIV-1).
For assay [21], the target named is HIV-1 93UG077 envelope glycoprotein (Env) on pseudovirus (HIV-1).
Assay [22] deals with HIV-1 JRCSF envelope glycoprotein (Env) on pseudovirus (HIV-1) (UniProt P20871).
The target of assay [23] is HIV-1 APV17 envelope glycoprotein (Env) on pseudovirus (HIV-1).
Assay [24] addresses HIV-1 JR-CSF Env N262A (HIV-1 (isolate JR-CSF)) (UniProt P20871).
Assay [25] deals with HIV-1 APV13 envelope glycoprotein (Env) on pseudovirus (HIV-1).
Assay [26] concerns the target HIV-1 APV6 envelope glycoprotein (Env) on pseudovirus (HIV-1).
For assay [27], the target named is HIV-1 MGRM-C-028 envelope glycoprotein (Env) on pseudovirus (HIV-1).
For assay [28], the target named is HIV-1 envelope glycoprotein (Env) of isolate 94UG103 (HIV-1).

Consider 4858_P08 (PGT-123) (antibody), for which the Fold IC50 increase relative to wild-type in assay [1] was 0.3 fold; in assay [3], 1.6 fold; in assay [8], 64 fold; in [9], 3.1 fold; in assay [10] it was 0.3 fold. Moreover, the IC50, pseudovirus neutralization in assay [2] came to 0.009 µg/mL; in the assay with HIV-1 JRFL Env (HIV-1), 0.0283 µg/mL; in [4], 0.012 µg/mL; in assay [5] it was 0.011 µg/mL; in assay [6] it was 0.104 µg/mL; in assay [7] it was 0.008 µg/mL.
For 5136_H01 (PGT-131) (antibody), the Fold IC50 increase relative to wild-type was 2.1 fold in assay [11]; 2.3 fold in [12]; 1.3 fold in assay [1]; 8.8 fold in assay [3]; 2.7 fold in assay [13]; above 170 fold in assay [8]. Also, the Fold IC50 increase relative to wild-type in assay [9] amounted to 96 fold; in assay [14], 4.5 fold; in assay [15], 2 fold.
Turning to 5343_B08 (PGT-135) (antibody), the Fold IC50 increase relative to wild-type in [11] was above 18 fold; in assay [1], 0.6 fold; in assay [24] it was 2.1 fold; in assay [13], 1.8 fold; in assay [10], above 250 fold; in assay [15], 0.36 fold. Further, the Neutralization IC80 is above 10 µg/mL in [16]; 0.2 µg/mL in assay [17]; 0.0562 µg/mL in [18]; 0.0648 µg/mL in assay [19]; above 10 µg/mL in assay [20]; above 10 µg/mL in [21]. In addition, the Neutralization IC80 in assay [22] is 0.503 µg/mL; in assay [23], above 10 µg/mL; in assay [25] it was above 10 µg/mL; in [26] it was above 10 µg/mL; in [27], above 10 µg/mL. Also, the Neutralization IC90 in assay [16] was above 10 µg/mL; in assay [17], above 10 µg/mL; in assay [18], 0.139 µg/mL; in assay [19], 0.136 µg/mL; in [20], above 10 µg/mL; in assay [21] it was above 10 µg/mL. In addition, the Neutralization IC90 is 1.47 µg/mL in assay [22]; above 10 µg/mL in assay [23]; above 10 µg/mL in assay [25]; above 10 µg/mL in assay [26]; above 10 µg/mL in [27]. The Neutralization IC95 in assay [16] is above 10 µg/mL; in assay [17], above 10 µg/mL; in assay [18] it was 0.331 µg/mL; in assay [19], 0.268 µg/mL; in [20], above 10 µg/mL; in [21] it was above 10 µg/mL. For the same substance, the Neutralization IC95 is 8.3 µg/mL in assay [22]; above 10 µg/mL in [23]; above 10 µg/mL in assay [25]; above 10 µg/mL in assay [26]; above 10 µg/mL in assay [27]. The neutralization IC50 in [16] was above 10 µg/mL; in assay [17], 0.0433 µg/mL; in assay [18] it was 0.0123 µg/mL; in [19], 0.0183 µg/mL; in assay [20] it was above 10 µg/mL; in assay [21], above 10 µg/mL. The neutralization IC50 in assay [22] was 0.113 µg/mL; in [23], above 10 µg/mL; in assay [25], 0.545 µg/mL; in assay [26], above 10 µg/mL; in assay [27] it was 2.16 µg/mL.
Take 5141_B17 (PGT-126) (antibody): the Fold IC50 increase relative to wild-type in assay [12] and in assay [15] was 0.2 fold each time. This substance had a Neutralization IC80 in assay [28] of 0.0316 µg/mL. The Neutralization IC90 in assay [28] was determined as 0.0655 µg/mL. For the same substance, the Neutralization IC95 in [28] came to 0.128 µg/mL. In [28], this substance registered a neutralization IC50 of 0.0091 µg/mL. Further, the IC50, pseudovirus neutralization in [2] is 0.005 µg/mL; with HIV-1 JRFL Env (HIV-1) it was 0.014 µg/mL; in assay [4], 0.008 µg/mL; in [5] it was 0.015 µg/mL; in [6], 1.35 µg/mL; in assay [7] it was 0.015 µg/mL.
For the substance 5123_A06 (PGT-125) (antibody), the Fold IC50 increase relative to wild-type was determined as 0.8 fold in assay [11]; 1.2 fold in assay [12]; 0.8 fold in assay [13]; 0.4 fold in [8]; 0.8 fold in [14]; 0.2 fold in assay [15]. The IC50, pseudovirus neutralization in assay [2] is 0.006 µg/mL; with HIV-1 JRFL Env (HIV-1), 0.0156 µg/mL; in assay [4] it was 0.007 µg/mL; in assay [5], 0.013 µg/mL; in [6], above 10 µg/mL; in assay [7], 0.016 µg/mL.
